Assay results taken from patent publication EP4786492A1.

Legend:
[1] = target: human DLL3 protein (extracellular segment, His tag) (human) (UniProt Q9NYJ7); experiment: SPR (Biacore 8K), antibody captured on Protein A chip, DLL3 antigen in solution, 1:1 Langmuir fit
[2] = target: DLL3 endogenously expressed on NCI-H82 cells (UniProt Q9NYJ7); experiment: FACS on NCI-H82 cells; antibody 0.032 nM
[3] = target: mouse DLL3 on CHO-K1-mDLL3 cells (mouse) (UniProt O88516); experiment: FACS, CHO-K1-mDLL3 cells, 0.8 nM antibody
Sequence of mouse DLL3 on CHO-K1-mDLL3 cells (mouse) (O88516 other isoform, or with tags, fused parts or gaps limits assumed): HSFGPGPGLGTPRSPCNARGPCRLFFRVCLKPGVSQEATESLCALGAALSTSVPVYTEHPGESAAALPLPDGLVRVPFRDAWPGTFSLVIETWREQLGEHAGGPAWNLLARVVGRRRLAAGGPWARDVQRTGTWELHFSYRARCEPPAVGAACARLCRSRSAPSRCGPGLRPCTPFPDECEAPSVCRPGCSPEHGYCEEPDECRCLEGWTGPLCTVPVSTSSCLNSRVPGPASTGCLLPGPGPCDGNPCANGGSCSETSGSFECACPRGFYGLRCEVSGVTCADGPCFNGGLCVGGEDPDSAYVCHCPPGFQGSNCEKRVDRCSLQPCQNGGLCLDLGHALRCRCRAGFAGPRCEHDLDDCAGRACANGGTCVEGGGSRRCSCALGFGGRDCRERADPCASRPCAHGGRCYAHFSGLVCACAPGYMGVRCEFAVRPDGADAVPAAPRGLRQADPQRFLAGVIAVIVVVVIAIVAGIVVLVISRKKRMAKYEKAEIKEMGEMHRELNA

[4] = target: human DLL3 protein expressed on CHO-K1 recombinant cells (human DLL3 extracellular segment fused to EpCAM transmembrane and intracellular regions) (human) (UniProt Q9NYJ7); experiment: FACS, CHO-K1 hDLL3 cells, 4 nM antibody
Sequence of human DLL3 protein expressed on CHO-K1 recombinant cells (human DLL3 extracellular segment fused to EpCAM transmembrane and intracellular regions) (human) (Q9NYJ7 other isoform, or with tags, fused parts or gaps limits assumed): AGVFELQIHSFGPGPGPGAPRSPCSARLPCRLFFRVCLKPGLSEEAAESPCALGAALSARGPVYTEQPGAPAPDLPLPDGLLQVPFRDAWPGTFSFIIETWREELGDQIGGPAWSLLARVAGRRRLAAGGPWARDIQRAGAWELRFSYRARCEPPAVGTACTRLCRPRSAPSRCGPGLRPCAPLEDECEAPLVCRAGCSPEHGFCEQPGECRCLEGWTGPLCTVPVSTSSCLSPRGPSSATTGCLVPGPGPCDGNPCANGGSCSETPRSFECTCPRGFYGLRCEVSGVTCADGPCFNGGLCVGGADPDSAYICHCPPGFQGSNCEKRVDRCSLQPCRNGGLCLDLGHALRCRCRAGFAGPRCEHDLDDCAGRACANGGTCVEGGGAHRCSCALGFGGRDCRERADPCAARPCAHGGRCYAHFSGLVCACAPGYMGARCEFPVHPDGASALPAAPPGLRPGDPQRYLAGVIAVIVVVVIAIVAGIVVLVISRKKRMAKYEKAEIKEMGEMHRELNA

[5] = target: monkey DLL3 on CHO-K1-cyno DLL3 cells (cynomolgus monkey); experiment: FACS, CHO-K1-cyno DLL3 cells, 0.8 nM antibody
Sequence of monkey DLL3 on CHO-K1-cyno DLL3 cells (cynomolgus monkey) (chain, as listed by the source limits assumed): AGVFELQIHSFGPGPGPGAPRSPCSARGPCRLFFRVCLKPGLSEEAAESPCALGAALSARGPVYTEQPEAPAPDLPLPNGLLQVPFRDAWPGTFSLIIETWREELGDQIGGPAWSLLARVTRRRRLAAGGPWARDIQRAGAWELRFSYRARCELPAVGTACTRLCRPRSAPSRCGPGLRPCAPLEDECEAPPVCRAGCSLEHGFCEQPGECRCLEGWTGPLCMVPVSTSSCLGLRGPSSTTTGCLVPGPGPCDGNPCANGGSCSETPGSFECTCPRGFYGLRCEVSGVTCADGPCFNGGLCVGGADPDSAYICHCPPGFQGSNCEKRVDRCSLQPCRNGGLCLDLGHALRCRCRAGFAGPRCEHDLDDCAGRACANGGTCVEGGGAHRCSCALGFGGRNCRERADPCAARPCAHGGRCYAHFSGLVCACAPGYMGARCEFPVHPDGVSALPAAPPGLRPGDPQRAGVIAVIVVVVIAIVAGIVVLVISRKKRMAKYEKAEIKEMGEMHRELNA

[6] = target: human DLL1 protein (Acro, Cat. No. DL1-H52H8) (human) (UniProt O00548); experiment: ELISA, coated hDLL1; maximum over 0.1, 1, 10, 100 nM antibody
Sequence of human DLL1 protein (Acro, Cat. No. DL1-H52H8) (human) (O00548 18-540 limits assumed): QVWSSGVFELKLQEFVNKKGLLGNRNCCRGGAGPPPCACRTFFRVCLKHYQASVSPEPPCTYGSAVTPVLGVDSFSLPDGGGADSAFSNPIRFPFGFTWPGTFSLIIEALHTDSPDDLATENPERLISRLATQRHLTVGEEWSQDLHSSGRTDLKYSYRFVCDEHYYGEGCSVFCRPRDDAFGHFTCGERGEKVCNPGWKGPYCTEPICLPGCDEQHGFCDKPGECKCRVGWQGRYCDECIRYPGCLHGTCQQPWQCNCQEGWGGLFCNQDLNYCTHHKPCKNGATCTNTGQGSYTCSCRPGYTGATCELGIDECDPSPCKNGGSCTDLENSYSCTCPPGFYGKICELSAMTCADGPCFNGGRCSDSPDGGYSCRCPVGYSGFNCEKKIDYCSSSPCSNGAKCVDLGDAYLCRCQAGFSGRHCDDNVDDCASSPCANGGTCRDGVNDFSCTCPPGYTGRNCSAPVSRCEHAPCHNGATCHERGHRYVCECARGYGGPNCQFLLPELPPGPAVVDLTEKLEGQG

[7] = target: mouse DLL3 on CHO-K1-mDLL3 cells (mouse) (UniProt O88516); experiment: FACS, CHO-K1-mDLL3 cells, 20 nM antibody
[8] = target: mouse DLL3 on CHO-K1-mDLL3 cells (mouse) (UniProt O88516); experiment: FACS, CHO-K1-mDLL3 cells, 0.0064 nM antibody
[9] = target: human delta-like ligand 3 (DLL3) on SHP77 cells (human) (UniProt Q9NYJ7); experiment: FACS on SHP77 cells
Sequence of human delta-like ligand 3 (DLL3) on SHP77 cells (human) (Q9NYJ7 27-618, stated change not applied): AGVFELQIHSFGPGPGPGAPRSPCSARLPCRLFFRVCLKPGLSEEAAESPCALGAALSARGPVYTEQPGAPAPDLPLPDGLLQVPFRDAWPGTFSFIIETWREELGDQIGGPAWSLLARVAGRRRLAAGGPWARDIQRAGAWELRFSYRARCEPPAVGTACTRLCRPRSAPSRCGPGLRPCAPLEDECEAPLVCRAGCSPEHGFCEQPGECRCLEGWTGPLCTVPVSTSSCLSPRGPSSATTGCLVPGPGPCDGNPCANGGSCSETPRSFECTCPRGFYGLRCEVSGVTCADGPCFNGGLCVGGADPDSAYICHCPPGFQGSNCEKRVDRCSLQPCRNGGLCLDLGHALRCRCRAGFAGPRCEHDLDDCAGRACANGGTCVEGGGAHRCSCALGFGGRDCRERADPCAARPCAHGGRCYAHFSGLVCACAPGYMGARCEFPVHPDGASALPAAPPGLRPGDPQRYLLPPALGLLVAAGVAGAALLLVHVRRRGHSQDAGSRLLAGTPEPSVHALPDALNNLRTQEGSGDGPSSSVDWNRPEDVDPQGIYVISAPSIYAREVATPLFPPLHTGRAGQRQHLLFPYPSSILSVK

[10] = target: DLL3 endogenously expressed on NCI-H82 cells (UniProt Q9NYJ7); experiment: FACS on NCI-H82 cells; antibody 0.00128 nM
[11] = target: monkey DLL3 on CHO-K1-cyno DLL3 cells (cynomolgus monkey); experiment: FACS, CHO-K1-cyno DLL3 cells, 0.032 nM antibody
[12] = target: monkey DLL3 on CHO-K1-cyno DLL3 cells (cynomolgus monkey); experiment: FACS, CHO-K1-cyno DLL3 cells, 4 nM antibody
[13] = target: human DLL3 protein expressed on CHO-K1 recombinant cells (human DLL3 extracellular segment fused to EpCAM transmembrane and intracellular regions) (human) (UniProt Q9NYJ7); experiment: FACS, CHO-K1 hDLL3 cells, 100 nM antibody
[14] = target: monkey DLL3 on CHO-K1-cyno DLL3 cells (cynomolgus monkey); experiment: FACS, CHO-K1-cyno DLL3 cells, 0.00128 nM antibody
[15] = target: monkey DLL3 on CHO-K1-cyno DLL3 cells (cynomolgus monkey); experiment: FACS, CHO-K1-cyno DLL3 cells, 100 nM antibody
[16] = target: DLL3 endogenously expressed on NCI-H82 cells (UniProt Q9NYJ7); experiment: FACS on NCI-H82 cells; antibody 0.0064 nM
[17] = target: DLL3 endogenously expressed on NCI-H82 cells (UniProt Q9NYJ7); experiment: FACS on NCI-H82 cells; antibody 0.8 nM
[18] = target: monkey DLL3 on CHO-K1-cyno DLL3 cells (cynomolgus monkey); experiment: FACS, CHO-K1-cyno DLL3 cells, 0.0064 nM antibody
[19] = target: human DLL3 protein expressed on CHO-K1 recombinant cells (human DLL3 extracellular segment fused to EpCAM transmembrane and intracellular regions) (human) (UniProt Q9NYJ7); experiment: FACS, CHO-K1 hDLL3 cells, 0.0064 nM antibody
[20] = target: human DLL4 protein (Acro, Cat. No. DL4-H5227) (human) (UniProt Q9NR61); experiment: ELISA, coated hDLL4; maximum over 0.1, 1, 10, 100 nM antibody
Sequence of human DLL4 protein (Acro, Cat. No. DL4-H5227) (human) (Q9NR61 27-524 limits assumed): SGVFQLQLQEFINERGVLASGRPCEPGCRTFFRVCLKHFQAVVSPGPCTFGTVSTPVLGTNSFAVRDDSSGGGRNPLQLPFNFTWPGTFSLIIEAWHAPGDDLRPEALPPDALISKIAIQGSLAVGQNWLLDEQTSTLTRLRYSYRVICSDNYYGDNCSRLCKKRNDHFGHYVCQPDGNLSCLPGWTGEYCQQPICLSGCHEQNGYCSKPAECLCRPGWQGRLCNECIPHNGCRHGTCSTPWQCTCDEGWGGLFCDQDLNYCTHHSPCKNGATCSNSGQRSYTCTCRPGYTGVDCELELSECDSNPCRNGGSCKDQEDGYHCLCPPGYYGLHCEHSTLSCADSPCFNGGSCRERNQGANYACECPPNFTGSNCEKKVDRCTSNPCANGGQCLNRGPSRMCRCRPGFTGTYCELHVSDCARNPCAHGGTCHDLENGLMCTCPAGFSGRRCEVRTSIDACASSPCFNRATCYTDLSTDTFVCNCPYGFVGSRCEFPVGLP

[21] = target: human DLL3 protein expressed on CHO-K1 recombinant cells (human DLL3 extracellular segment fused to EpCAM transmembrane and intracellular regions) (human) (UniProt Q9NYJ7); experiment: FACS, CHO-K1 hDLL3 cells, 0.032 nM antibody
[22] = target: DLL3 endogenously expressed on NCI-H82 cells (UniProt Q9NYJ7); experiment: FACS on NCI-H82 cells; antibody 20 nM
[23] = target: monkey DLL3 on CHO-K1-cyno DLL3 cells (cynomolgus monkey); experiment: FACS, CHO-K1-cyno DLL3 cells, 0.16 nM antibody
[24] = target: DLL3 endogenously expressed on NCI-H82 cells (UniProt Q9NYJ7); experiment: FACS on NCI-H82 cells; antibody 100 nM
[25] = target: mouse DLL3 on CHO-K1-mDLL3 cells (mouse) (UniProt O88516); experiment: FACS, CHO-K1-mDLL3 cells, 4 nM antibody
[26] = target: DLL3 endogenously expressed on NCI-H82 cells (UniProt Q9NYJ7); experiment: FACS on NCI-H82 cells; antibody 0.16 nM
[27] = target: human DLL3 protein expressed on CHO-K1 recombinant cells (human DLL3 extracellular segment fused to EpCAM transmembrane and intracellular regions) (human) (UniProt Q9NYJ7); experiment: FACS, CHO-K1 hDLL3 cells, 0.16 nM antibody
[28] = target: mouse DLL3 on CHO-K1-mDLL3 cells (mouse) (UniProt O88516); experiment: FACS, CHO-K1-mDLL3 cells, 100 nM antibody
[29] = target: human DLL3 protein expressed on CHO-K1 recombinant cells (human DLL3 extracellular segment fused to EpCAM transmembrane and intracellular regions) (human) (UniProt Q9NYJ7); experiment: FACS, CHO-K1 hDLL3 cells, 20 nM antibody
[30] = target: mouse DLL3 on CHO-K1-mDLL3 cells (mouse) (UniProt O88516); experiment: FACS, CHO-K1-mDLL3 cells, 0.16 nM antibody
[31] = target: mouse DLL3 on CHO-K1-mDLL3 cells (mouse) (UniProt O88516); experiment: FACS, CHO-K1-mDLL3 cells, 0.032 nM antibody
[32] = target: human DLL3 protein expressed on CHO-K1 recombinant cells (human DLL3 extracellular segment fused to EpCAM transmembrane and intracellular regions) (human) (UniProt Q9NYJ7); experiment: FACS, CHO-K1 hDLL3 cells, 0.8 nM antibody
[33] = target: mouse DLL3 on CHO-K1-mDLL3 cells (mouse) (UniProt O88516); experiment: FACS, CHO-K1-mDLL3 cells, 0.00128 nM antibody
[34] = target: human DLL3 protein expressed on CHO-K1 recombinant cells (human DLL3 extracellular segment fused to EpCAM transmembrane and intracellular regions) (human) (UniProt Q9NYJ7); experiment: FACS, CHO-K1 hDLL3 cells, 0.00128 nM antibody
[35] = target: DLL3 endogenously expressed on NCI-H82 cells (UniProt Q9NYJ7); experiment: FACS on NCI-H82 cells; antibody 4 nM
[36] = target: monkey DLL3 on CHO-K1-cyno DLL3 cells (cynomolgus monkey); experiment: FACS, CHO-K1-cyno DLL3 cells, 20 nM antibody

Sequence of DLL3 endogenously expressed on NCI-H82 cells (Q9NYJ7 27-618): as the sequence (Q9NYJ7 27-618, stated change not applied) above
Sequence of human DLL3 protein (extracellular segment, His tag) (human) (Q9NYJ7 27-492): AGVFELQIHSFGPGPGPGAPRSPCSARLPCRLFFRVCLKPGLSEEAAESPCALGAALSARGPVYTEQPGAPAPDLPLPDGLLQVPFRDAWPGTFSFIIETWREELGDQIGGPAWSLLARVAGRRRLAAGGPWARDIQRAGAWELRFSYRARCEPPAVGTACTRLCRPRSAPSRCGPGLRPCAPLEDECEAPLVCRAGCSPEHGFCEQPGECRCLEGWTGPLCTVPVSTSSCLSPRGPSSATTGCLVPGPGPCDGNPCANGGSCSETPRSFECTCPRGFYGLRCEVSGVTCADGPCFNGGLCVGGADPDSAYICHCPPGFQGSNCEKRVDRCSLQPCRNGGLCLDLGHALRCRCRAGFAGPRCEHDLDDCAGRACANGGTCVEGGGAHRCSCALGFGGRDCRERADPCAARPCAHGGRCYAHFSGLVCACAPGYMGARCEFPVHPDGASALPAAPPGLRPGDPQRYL

B1: Hab014VL1VH2-hFc (scFv, part only; not given: VL-VH linker and human IgG1 Fc, V domains shown, not shown: another chain or arm of the molecule; a dimerising Fc or GST; small tags and cut ends)
VL: DIQMTQSPSSLSASVGDRVTITCKASEDIYNRLAWYQQKPGKVPKLLISGATSLETGVPSRFSGSGSGTDFTLTISSLQPEDVATYYCQQYWSLPWTFGGGTKVEIK
VH: EVQLVQSGAEVKKPGASVKVSCKASGYTFTDYYMNWVRQAPGQRLEWMGDINPNHGDTGYNQKFTGRVTLTVDKSASTAYMELSSLRSEDTAVYYCARNFFYYGTTYGWYFDVWGQGTTVTVSS
B1 gave a Kd [1] of 0.0772 nM, a koff [1] of 7.84e-05 s⁻¹ and a kon [1] of 1.02e+06 M⁻¹ s⁻¹. The MFI [2] was 204, the MFI [3] was 268 MFI and the MFI [4] was 14000 MFI. For the same binder, the MFI [5] was 9960 MFI, the Emax of OD450 nm binding value [6] was 0.1 OD450 nm and the MFI [7] was 355 MFI. It also gave an MFI [8] of 122 MFI, an MFI at 0.00128 nM [9] of 90 MFI and an MFI at 0.0064 nM [9] of 94 MFI. The MFI at 0.032 nM [9] was 116 MFI, the MFI at 0.16 nM [9] was 192 MFI and the MFI at 0.8 nM [9] was 403 MFI. It also gave an MFI at 4 nM [9] of 628 MFI, an MFI at 20 nM [9] of 818 MFI and an MFI at 100 nM [9] of 1120 MFI. For the same binder, the MFI [10] was 110, the MFI [11] was 692 MFI and the MFI [12] was 25900 MFI. It also gave an MFI [13] of 16000 MFI, an MFI [14] of 215 MFI and an MFI [15] of 32800 MFI. It also gave an MFI [16] of 130, an MFI [17] of 580 and an MFI [18] of 306 MFI. It also gave an MFI [19] of 306 MFI, an Emax of OD450 nm binding value [20] of 0.13 OD450 nm and an MFI [21] of 698 MFI. The MFI [22] was 784, the MFI [23] was 2190 MFI and the MFI [24] was 1100. For the same binder, the MFI [25] was 311 MFI, the MFI [26] was 419 and the MFI [27] was 2130 MFI. For the same binder, the MFI [28] was 389 MFI, the MFI [29] was 15100 MFI and the MFI [30] was 208 MFI. It also gave an MFI [31] of 148 MFI, an MFI [32] of 9190 MFI and an MFI [33] of 109 MFI. For the same binder, the MFI [34] was 221 MFI, the MFI [35] was 625 and the MFI [36] was 31500 MFI.

B2: Hab014VL2VH1-hFc (scFv, part only; not given: scFv linker and human IgG1 Fc, V domains shown, not shown: another chain or arm of the molecule; a dimerising Fc or GST; small tags and cut ends)
VL: DIQMTQSPSSLSASVGDRVTITCKASEDIYNRLAWYQQKPGKVPKLLISGATSLETGVPSRFSGSGSGKDFTLTISSLQPEDVATYYCQQYWSLPWTFGGGTKVEIK
VH: EVQLVQSGAEVKKPGASVKVSCKASGYTFTDYYMNWVRQAPGQRLEWMGDINPNHGDTGYNQKFTGRVTITVDKSASTAYMELSSLRSEDTAVYYCARNFFYYGTTYGWYFDVWGQGTTVTVSS
B2 gave a Kd [1] of 0.111 nM, a koff [1] of 0.000135 s⁻¹ and a kon [1] of 1.21e+06 M⁻¹ s⁻¹. It also gave an MFI [2] of 217, an MFI [3] of 272 MFI and an MFI [4] of 15400 MFI. For the same binder, the MFI [5] was 10100 MFI, the Emax of OD450 nm binding value [6] was 0.17 OD450 nm and the MFI [7] was 355 MFI. For the same binder, the MFI [8] was 118 MFI, the MFI at 0.00128 nM [9] was 91 MFI and the MFI at 0.0064 nM [9] was 99 MFI. For the same binder, the MFI at 0.032 nM [9] was 120 MFI, the MFI at 0.16 nM [9] was 207 MFI and the MFI at 0.8 nM [9] was 407 MFI. For the same binder, the MFI at 4 nM [9] was 610 MFI, the MFI at 20 nM [9] was 796 MFI and the MFI at 100 nM [9] was 1110 MFI. The MFI [10] was 113, the MFI [11] was 661 MFI and the MFI [12] was 25300 MFI. It also gave an MFI [13] of 16400 MFI, an MFI [14] of 200 MFI and an MFI [15] of 33000 MFI. For the same binder, the MFI [16] was 142, the MFI [17] was 554 and the MFI [18] was 287 MFI. For the same binder, the MFI [19] was 322 MFI, the Emax of OD450 nm binding value [20] was 0.25 OD450 nm and the MFI [21] was 705 MFI. The MFI [22] was 754, the MFI [23] was 1670 MFI and the MFI [24] was 1110. It also gave an MFI [25] of 308 MFI, an MFI [26] of 428 and an MFI [27] of 2380 MFI. The MFI [28] was 374 MFI, the MFI [29] was 16100 MFI and the MFI [30] was 204 MFI. The MFI [31] was 152 MFI, the MFI [32] was 8420 MFI and the MFI [33] was 109 MFI. The MFI [34] was 231 MFI, the MFI [35] was 624 and the MFI [36] was 33000 MFI.
